From the supplement of paper PMC9112550, “Optimization of the antimicrobial peptide Bac7 by deep mutational scanning” (BMC Biology, 2022)

Tested on: Escherichia coli TOP10
Experiment: shrunken log2 fold change of peptide-encoding DNA abundance (4.5 h post-induction vs induction); higher = less antimicrobial activity (less host growth inhibition)
Conditions: time post-induction: 4.5 h; library: site-saturation at positions 5, 18, 19, 20
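Further: peptides expressed intracellularly from a pBAD plasmid library in pooled LB shake-flask culture, induced with 0.3% L-arabinose, DNA abundance read by NGS, three biological replicates, DESeq2 with apeglm shrinkage.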

Sequence | shrunken log2 fold change
RRIRIRPPRLPRPRPRPTEIPRP | -0.305
RRIRVRPPRLPRPRPRPIKQPRP | 0.0119
RRIRLRPPRLPRPRPRPYGLPRP | -0.0893
RRIRNRPPRLPRPRPRPYRRPRP | -0.281
RRIRMRPPRLPRPRPRPMQQPRP | 1.38
RRIRMRPPRLPRPRPRPTHRPRP | 0.929
RRIRRRPPRLPRPRPRPEAYPRP | 0.15
RRIRIRPPRLPRPRPRPTPQPRP | -0.117
RRIRARPPRLPRPRPRPSTLPRP | 0.111
RRIRWRPPRLPRPRPRPIYPPRP | -0.0275
RRIRWRPPRLPRPRPRPPSKPRP | 0.104
RRIRTRPPRLPRPRPRPECNPRP | 0.0232
RRIRGRPPRLPRPRPRPRLDPRP | 0.692
RRIRSRPPRLPRPRPRPKCHPRP | -0.31
RRIRQRPPRLPRPRPRPAPIPRP | 0.34
RRIRARPPRLPRPRPRPTVIPRP | 0.0535
RRIRSRPPRLPRPRPRPVWWPRP | 0.131
RRIRIRPPRLPRPRPRPARMPRP | 0.223
RRIRVRPPRLPRPRPRPCFWPRP | -0.0218
RRIRSRPPRLPRPRPRPMPNPRP | -0.0112
RRIRYRPPRLPRPRPRPYGVPRP | -0.00992
RRIRCRPPRLPRPRPRPPQVPRP | 0.204
RRIRFRPPRLPRPRPRPPDSPRP | 0.0539
RRIRSRPPRLPRPRPRPMGMPRP | -0.366
RRIRNRPPRLPRPRPRPHDHPRP | 0.171

Sequence | shrunken log2 fold change
RRIRQRPPRLPRPRPRPLQAPRP | 0.0365
RRIRLRPPRLPRPRPRPHHTPRP | -0.558
RRIRDRPPRLPRPRPRPVVSPRP | 0.0706
RRIRMRPPRLPRPRPRPRPNPRP | 0.903
RRIRARPPRLPRPRPRPGIKPRP | -0.0359
RRIRARPPRLPRPRPRPELPPRP | 1.5
RRIRSRPPRLPRPRPRPTMFPRP | -0.0103
RRIRDRPPRLPRPRPRPELNPRP | 1.04
RRIRDRPPRLPRPRPRPHKKPRP | -0.00887
RRIRRRPPRLPRPRPRPFLWPRP | 0.173
RRIRLRPPRLPRPRPRPFQIPRP | -0.109
RRIRNRPPRLPRPRPRPWCDPRP | -0.365
RRIRQRPPRLPRPRPRPMIWPRP | -0.79
RRIRKRPPRLPRPRPRPLGEPRP | 0.445
RRIRFRPPRLPRPRPRPHAQPRP | -0.305
RRIRYRPPRLPRPRPRPQNQPRP | -0.562
RRIRTRPPRLPRPRPRPSNCPRP | -0.414
RRIRMRPPRLPRPRPRPCQIPRP | -0.0194
RRIRQRPPRLPRPRPRPDCPPRP | -0.283
RRIRMRPPRLPRPRPRPTLCPRP | 0.122
RRIRNRPPRLPRPRPRPKIIPRP | -0.118
RRIRLRPPRLPRPRPRPYFIPRP | -1.11
RRIRDRPPRLPRPRPRPQFEPRP | 0.0888
RRIRKRPPRLPRPRPRPVSFPRP | -0.0599
RRIRYRPPRLPRPRPRPMHDPRP | -0.598

Sequence | shrunken log2 fold change
RRIRQRPPRLPRPRPRPTRYPRP | 0.511
RRIRERPPRLPRPRPRPGPLPRP | -0.127
RRIRKRPPRLPRPRPRPGQGPRP | 0.205
RRIRLRPPRLPRPRPRPQCRPRP | 0.0156
RRIRHRPPRLPRPRPRPPSVPRP | 0.241
RRIRFRPPRLPRPRPRPFNHPRP | -0.285
RRIRTRPPRLPRPRPRPTTWPRP | -0.0444
RRIRGRPPRLPRPRPRPQEIPRP | 0.427
RRIRDRPPRLPRPRPRPNQCPRP | -0.436
RRIRQRPPRLPRPRPRPHLMPRP | 0.106
RRIRQRPPRLPRPRPRPGMVPRP | 0.0259
RRIRHRPPRLPRPRPRPGYWPRP | -0.151
RRIRMRPPRLPRPRPRPVDFPRP | 0.159
RRIRTRPPRLPRPRPRPWHHPRP | 0.0255
RRIRWRPPRLPRPRPRPGAWPRP | 0.373
RRIRIRPPRLPRPRPRPGAPPRP | 0.416
RRIRPRPPRLPRPRPRPCSPPRP | 0.0563
RRIRPRPPRLPRPRPRPSWGPRP | -0.0123
RRIRSRPPRLPRPRPRPFYEPRP | -0.165
RRIRTRPPRLPRPRPRPNYPPRP | -0.0192
RRIRHRPPRLPRPRPRPACRPRP | -0.141
RRIRYRPPRLPRPRPRPRIKPRP | -0.502
RRIRIRPPRLPRPRPRPLSWPRP | -0.0609
RRIRWRPPRLPRPRPRPVSIPRP | 0.235
RRIRQRPPRLPRPRPRPDKTPRP | -0.00926

Sequence | shrunken log2 fold change
RRIRQRPPRLPRPRPRPRSCPRP | 0.268
RRIRDRPPRLPRPRPRPIPWPRP | 0.077
RRIRRRPPRLPRPRPRPMFIPRP | -0.275
RRIRFRPPRLPRPRPRPWLKPRP | -0.111
RRIRYRPPRLPRPRPRPYCCPRP | -0.145
RRIRSRPPRLPRPRPRPTIQPRP | -0.305
RRIRGRPPRLPRPRPRPYWQPRP | -0.369
RRIRGRPPRLPRPRPRPPWFPRP | 0.772
RRIRLRPPRLPRPRPRPCEYPRP | 0.0103
RRIRKRPPRLPRPRPRPSKDPRP | 0.395
RRIRPRPPRLPRPRPRPCGWPRP | 0.403
RRIRHRPPRLPRPRPRPYDDPRP | -0.00822
RRIRTRPPRLPRPRPRPGERPRP | 0.113
RRIRKRPPRLPRPRPRPCMLPRP | -0.245
RRIRDRPPRLPRPRPRPRCDPRP | -0.0149
RRIRYRPPRLPRPRPRPQSEPRP | -0.37
RRIRKRPPRLPRPRPRPCGPPRP | -0.0191
RRIRKRPPRLPRPRPRPLITPRP | 0.0992
RRIRCRPPRLPRPRPRPKLPPRP | -0.0559
RRIRYRPPRLPRPRPRPAFGPRP | -0.21
RRIRCRPPRLPRPRPRPGNPPRP | -0.132
RRIRTRPPRLPRPRPRPGAAPRP | 0.509
RRIRNRPPRLPRPRPRPHTCPRP | 0.0167
RRIRMRPPRLPRPRPRPGSLPRP | 0.432
RRIRPRPPRLPRPRPRPIVIPRP | -0.328

Sequence | shrunken log2 fold change
RRIRIRPPRLPRPRPRPVPNPRP | -0.00284
RRIRCRPPRLPRPRPRPWFKPRP | -0.582
RRIRGRPPRLPRPRPRPVCLPRP | 1.1
RRIRNRPPRLPRPRPRPMGQPRP | 0.128
RRIRRRPPRLPRPRPRPTLHPRP | 0.534
RRIRWRPPRLPRPRPRPHYWPRP | -0.0704
RRIRQRPPRLPRPRPRPRAGPRP | 0.389
RRIRDRPPRLPRPRPRPKIMPRP | 0.199
RRIRGRPPRLPRPRPRPDRKPRP | 0.051
RRIRRRPPRLPRPRPRPNHMPRP | -0.299
RRIRIRPPRLPRPRPRPAFCPRP | 0.167
RRIRPRPPRLPRPRPRPFMVPRP | -0.478
RRIRGRPPRLPRPRPRPFLDPRP | 0.209
RRIRNRPPRLPRPRPRPHHRPRP | 0.0742
RRIRYRPPRLPRPRPRPYSHPRP | -0.958
RRIRSRPPRLPRPRPRPMCYPRP | -0.0971
RRIRRRPPRLPRPRPRPFAHPRP | -0.00279
RRIRCRPPRLPRPRPRPLCMPRP | -0.0162
RRIRCRPPRLPRPRPRPMSTPRP | -0.0888
RRIRKRPPRLPRPRPRPFTDPRP | -0.091
RRIRFRPPRLPRPRPRPWNRPRP | -0.216
RRIRWRPPRLPRPRPRPKTQPRP | 0.0326
RRIRARPPRLPRPRPRPKIDPRP | 0.115
RRIRPRPPRLPRPRPRPHFDPRP | -0.0993
RRIRNRPPRLPRPRPRPRNYPRP | -0.123
